Results reported in paper PMC5986272, “Biosynthetic tailoring of existing ascaroside pheromones alters their biological function in C. elegans” (eLife, 2018).

What was measured:
ACOX-1.1 = target: T1, ACOX-1.1 (Caenorhabditis elegans, UniProt O62140); test: LC-MS assay with MAOC-1, DHS-28, DAF-22; peroxidase-coupled H2O2 assay; assay type: biochemical; settings: LC-MS: 40 μM substrate, 20 μM FAD, 20 μM NAD+, 200 μM CoA, pH 7.5, 30 °C; coupled: 24 µM substrate, ~23 °C
T1 construct: pET-16b-acox-1.1a, expressed in E. coli and purified, homodimer
T1 sequence (O62140 1-674): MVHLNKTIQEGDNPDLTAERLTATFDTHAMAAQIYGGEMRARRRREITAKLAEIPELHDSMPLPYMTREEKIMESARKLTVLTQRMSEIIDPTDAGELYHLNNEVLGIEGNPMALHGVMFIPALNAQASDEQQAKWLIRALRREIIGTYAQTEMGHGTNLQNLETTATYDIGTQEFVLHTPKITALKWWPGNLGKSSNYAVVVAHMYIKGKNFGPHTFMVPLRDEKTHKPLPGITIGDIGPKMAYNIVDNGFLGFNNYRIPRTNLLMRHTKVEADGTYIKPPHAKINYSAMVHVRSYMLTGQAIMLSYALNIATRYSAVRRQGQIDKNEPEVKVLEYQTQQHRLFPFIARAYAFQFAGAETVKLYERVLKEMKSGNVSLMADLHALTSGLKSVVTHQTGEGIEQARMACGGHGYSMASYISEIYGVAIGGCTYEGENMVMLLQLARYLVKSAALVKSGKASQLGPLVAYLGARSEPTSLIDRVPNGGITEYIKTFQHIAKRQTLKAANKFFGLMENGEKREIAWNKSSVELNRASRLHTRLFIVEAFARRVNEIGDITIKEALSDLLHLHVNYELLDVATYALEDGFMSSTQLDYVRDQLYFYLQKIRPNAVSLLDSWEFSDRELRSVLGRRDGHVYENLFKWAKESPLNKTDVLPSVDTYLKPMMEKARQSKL

purified protein = substrate: C[C@H](CCCCCCC(=O)O)O[C@@H]1O[C@@H](C)[C@H](OC(=O)c2c[nH]c3ccccc23)C[C@H]1O; test: purified protein; assay type: biochemical, Caenorhabditis elegans; settings: 7.5 mM ATP, 1 mM CoA, 10 mM MgCl2, 1.6 mM Triton X-100, pH 7.4, 22 °C

C[C@H](CCCCCCC(=O)SCCNC(=O)CCNC(=O)[C@H](O)C(C)(C)COP(=O)(O)OP(=O)(O)OC[C@H]1O[C@@H](n2cnc3c(N)ncnc32)[C@H](O)[C@@H]1OP(=O)(O)O)O[C@@H]1O[C@@H](C)[C@H](OC(=O)c2c[nH]c3ccccc23)C[C@H]1O [IC-asc-C9-CoA]
LC-MS assay with MAOC-1, DHS-28, DAF-22; peroxidase-coupled H2O2 assay (ACOX-1.1): It also showed activity towards IC-asc-C9-CoA, but less than towards IC-asc-C7-CoA

B1: ACS-7 (Caenorhabditis elegans) (protein)
chain: MIFHGEQLENHDKPVHEVLLERFKVHQEKDPDNVAFVTAENEDDSLGFQQLGKKVLQISEWFVENGYKKGDVFLLASYNNWRCFAAALGAWRAGLIVSAAASQFTSFEMNYQIEDSQSQVILVDKHTLPVVQEACKNLKFVKQIISISANPPSPVIKFDVLTSRLVRNLKMPLIDPKNDIVFLPYSSGTTGKPKGVMISHLNFSMMLESSLRFFDANAKAIGLPPDFVLPYDLHFLPMYHAMGMFRTLLTSYRGTTQIMFTKFDMELMLKNIEKYSIMVLSLVPAIAVRMLNSPLLQKYDVSSLVSVTVGSAPFPESASKKLKQLLPNVNIVQGYGMTELTFATHLQSPGSPDGSVGRLVPGTSMKVKKEDGTLCGPHEIGELWIKGPQMMKGYWKKEQQTNELLDEHGFMRTGDIVYFDKNGETFICDRIKELIKVNAKQVAPAELESVILEHDDVADVCVFGVDDASSGERPVACVVSKRGRDMETSKAIMKHINQKLARYKHIKEIEFVSEIMRTGTGKLLRRAMKKAFLDAKKAKL
notes: full-length from cDNA library, pET-22b (NdeI/XhoI), His-tagged, E. coli BL21(DE3), Ni-NTA and Superdex 200
Km (purified protein): 14.5 ± 3.0 µM
kcat (purified protein): 0.53 ± 0.08 s⁻¹
